# B1: anti-PD-L1 HuMAb 3G10 (antibody, V domains shown)
# VH: QVQLVQSGAEVKKPGASVKVSCKASGYTFTDYGFSWVRQAPGQGLEWMGWITAYNGNTNYAQKLQGRVTMTTDTSTSTVYMELRSLRSDDTAVYYCARDYFYGMDVWGQGTTVTVSS
# VL: EIVLTQSPATLSLSPGERATLSCRASQSVSSYLVWYQQKPGQAPRLLIYDASNRATGIPARFSGSGSGTDFTLTISSLEPEDFAVYYCQQRSNWPRTFGQGTKVEIK
# notes: Human mAb; used unconjugated and FITC-conjugated
# Key:
# [1] = biological target: human PD-L1 (hPD-L1), Programmed Death Ligand-1, cell surface expressed (human) (UniProt Q9NZQ7); assay: IHC histoscore (0-300), FFPE Mel sample T980744
# human PD-L1 (hPD-L1), Programmed Death Ligand-1, cell surface expressed (human), sequence (Q9NZQ7 19-290): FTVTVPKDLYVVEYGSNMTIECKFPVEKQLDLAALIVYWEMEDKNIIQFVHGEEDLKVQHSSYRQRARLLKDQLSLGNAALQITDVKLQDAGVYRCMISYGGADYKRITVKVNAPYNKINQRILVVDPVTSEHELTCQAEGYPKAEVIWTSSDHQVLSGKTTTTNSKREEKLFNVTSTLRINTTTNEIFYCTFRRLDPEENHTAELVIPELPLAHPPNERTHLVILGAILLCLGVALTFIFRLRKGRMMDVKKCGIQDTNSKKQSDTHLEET
# [2] = biological target: human PD-L1 (hPD-L1), Programmed Death Ligand-1, cell surface expressed (human) (UniProt Q9NZQ7); assay: IHC histoscore (0-300), FFPE NSCLC sample 1080766B
# [3] = biological target: human PD-L1 (hPD-L1), Programmed Death Ligand-1, cell surface expressed (human) (UniProt Q9NZQ7); assay: IHC histoscore (0-300), FFPE RCC sample 1167809B
# [4] = biological target: human PD-L1 (hPD-L1), Programmed Death Ligand-1, cell surface expressed (human) (UniProt Q9NZQ7); assay: IHC histoscore (0-300), FFPE NSCLC sample 1080754B
# [5] = biological target: human PD-L1 (hPD-L1), Programmed Death Ligand-1, cell surface expressed (human) (UniProt Q9NZQ7); assay: IHC histoscore (0-300), FFPE RCC sample 1164619B
# [6] = biological target: human PD-L1 (hPD-L1), Programmed Death Ligand-1, cell surface expressed (human) (UniProt Q9NZQ7); assay: IHC histoscore (0-300), FFPE NSCLC sample 1080790
# [7] = biological target: human PD-L1 (hPD-L1), Programmed Death Ligand-1, cell surface expressed (human) (UniProt Q9NZQ7); assay: IHC histoscore (0-300), FFPE NSCLC sample 1080993B
# [8] = biological target: human PD-L1 (hPD-L1), Programmed Death Ligand-1, cell surface expressed (human) (UniProt Q9NZQ7); assay: IHC histoscore (0-300), FFPE Mel sample T030668
# [9] = biological target: human PD-L1 (hPD-L1), Programmed Death Ligand-1, cell surface expressed (human) (UniProt Q9NZQ7); assay: IHC histoscore (0-300), FFPE Mel sample 1168657B
# [10] = biological target: T1, human PD-L1 (hPD-L1), Programmed Death Ligand-1, cell surface expressed (human, UniProt Q9NZQ7 19-290); assay: competition flow cytometry on ES-2 cells: unlabelled mAb titrated, then biotin-12A4 at 0.4 ug/ml, streptavidin-PE
# T1 construct: whole, on cells; In the IHC assays the cells and tissues were formalin-fixed and paraffin-embedded (FFPE); also called membranous PD-L1
# T1 sequence (Q9NZQ7 19-290): as above
# Procedure: Anti-PD-L1 HuMAbs 5F8, 12B7, 3G10, 1B12, 13G4, 10H10, 10A5 and 12A4, and a human IgG1 (huIgG1) isotype control Ab were serially diluted from 10 μg/ml and incubated with hPD-L1-expressing ES-2 ovarian carcinoma cells for 20 minutes at 4° C. Without washing, biotinylated-12A4 Ab was added to a final concentration of 0.4 μg/ml for an additional 20 minutes at 4° C.
Molecule,Histoscore Average [1],Histoscore Average [2],Histoscore Average [3],Histoscore Average [4],Histoscore Average [5],Histoscore Average [6],Histoscore Average [7],Histoscore Average [8],Histoscore Average [9],IC50 (read off the curve) [10] [nM]
"murine anti-human PD-L1 mAb 5H1 (Dong et al., 2002) (antibody)",98,103,108,245,4,40,12,98,0,
B1,,,,,,,,,,~1
